Molecular target: RBD derived from the Omicron strain (BA.3 strain) (SARS-CoV-2)

| Substance | binding inhibition rate (%) |
| --- | --- |
| LY_CoV555 (antibody) | < 80 |
| AZD8895 (antibody) | < 80 |
| AZD1061 (antibody) | < 80 |
| ADG2 (antibody) | < 80 |
| REGN10987 (antibody) | < 80 |
| S309 (antibody) | < 80 |
| LY_CoV16 (antibody) | < 80 |
| REGN10933 (antibody) | < 80 |

Source: patent WO2023190852A1
